Experimental data taken from patent US6794147 (Pfizer, dated 2004).

Target: T1, mouse MLH1 (endogenous, mouse testicular lysates) (mouse, UniProt Q9JK91 1-760)
T1 construct: Endogenous protein immunoprecipitated from mouse testicular lysates
T1 sequence (looked up): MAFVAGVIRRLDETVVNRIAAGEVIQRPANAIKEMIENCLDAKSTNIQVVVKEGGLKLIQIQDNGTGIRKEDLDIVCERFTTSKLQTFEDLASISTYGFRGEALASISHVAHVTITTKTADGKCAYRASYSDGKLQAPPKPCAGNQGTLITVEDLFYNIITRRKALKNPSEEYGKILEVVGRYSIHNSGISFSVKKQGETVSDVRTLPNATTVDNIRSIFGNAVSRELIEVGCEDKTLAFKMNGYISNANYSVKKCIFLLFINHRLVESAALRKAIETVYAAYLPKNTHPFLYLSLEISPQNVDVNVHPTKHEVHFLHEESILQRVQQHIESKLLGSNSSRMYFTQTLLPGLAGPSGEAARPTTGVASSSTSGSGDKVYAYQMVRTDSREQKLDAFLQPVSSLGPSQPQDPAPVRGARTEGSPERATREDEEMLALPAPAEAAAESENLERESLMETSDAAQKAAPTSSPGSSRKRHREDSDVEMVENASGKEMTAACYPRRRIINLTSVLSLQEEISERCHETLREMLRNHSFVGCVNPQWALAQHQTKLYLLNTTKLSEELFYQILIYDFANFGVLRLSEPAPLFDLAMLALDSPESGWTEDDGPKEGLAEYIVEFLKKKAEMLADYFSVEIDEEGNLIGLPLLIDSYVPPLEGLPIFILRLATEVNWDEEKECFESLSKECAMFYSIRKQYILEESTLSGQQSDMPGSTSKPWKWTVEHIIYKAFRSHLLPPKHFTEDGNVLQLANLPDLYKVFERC
Test: co-immunoprecipitation from mouse testicular lysates with anti-RAD51 antibody, Western blotting

B1: mouse RAD51 (endogenous, mouse testicular lysates) (other, UniProt Q08297 2-339, looked up)
chain: AMQMQLEASADTSVEEESFGPQPISRLEQCGINANDVKKLEEAGYHTVEAVAYAPKKELINIKGISEAKADKILTEAAKLVPMGFTTATEFHQRRSEIIQITTGSKELDKLLQGGIETGSITEMFGEFRTGKTQICHTLAVTCQLPIDRGGGEGKAMYIDTEGTFRPERLLAVAERYGLSGSDVLDNVAYARGFNTDHQTQLLYQASAMMVESRYALLIVDSATALYRTDYSGRGELSARQMHLARFLRMLLRLADEFGVAVVITNQVVAQVDGAAMFAADPKKPIGGNIIAHASTTRLYLRKGRGETRICKIYDSPCLPEAEAMFAINADGVGDAKD
notes: Endogenous protein immunoprecipitated from mouse testicular lysates
- binding result: no binding
